Assays:
[1] = target: T1, Folate Receptor Alpha (FRα) (UniProt P15328 25-234, limits assumed); experiment: flow cytometry on Ovcar-5 cells, anti-human IgG Fc secondary
T1 construct: whole, on cells; also called FR-Alpha
Experimental: (§1) Binding of exemplary multispecific polypeptide constructs of the disclosure containing an antigen-binding domain directed against Folate Receptor Alpha (FRα) to CD3 on the surface of primary T cells and to FRα expressing cells (Ovcar-5) was assessed by flow cytometry. The tumor antigen binding domains of the tested constructs bind the Folate Receptor Alpha (FRα), which is not expressed on the primary T cells. The tested constructs included cx1356 and cx681, containing a non-cleavable linker of 3 amino acids in cx1356 or a non-cleavable linker of 18 amino acids in cx681 (see FIG. 2B and Table E1.1).
(§2) For the studies described in FIGS. 5A and 5B, 100 nM of each construct, cx1356 or cx681 was used and assessed for binding to either the Ovcar-5 cells or primary T-cells. An anti-CD3 antibody was included as a control. A titration of the constrained CD3 engaging constructs on either FRα expressing cells (Ovcar-5; FIG. 5C) or isolated primary T-cells (FRα negative; FIG. 5D), was conducted to assess binding. Bound constructs were detected using fluorophore-conjugated anti-human IgG Fc secondary antibody.

[2] = target: T2, CD3 on the surface of primary T cells (human, UniProt P07766 23-207); experiment: flow cytometry on isolated primary T cells, anti-human IgG Fc secondary
T2 construct: whole, on cells; CD3 is a multimeric complex (ε, γ, δ, ζ chains) with the TCR; In the reporter assays CD3 stood on Jurkat cells; also called CD3ε
T2 sequence (P07766 23-207): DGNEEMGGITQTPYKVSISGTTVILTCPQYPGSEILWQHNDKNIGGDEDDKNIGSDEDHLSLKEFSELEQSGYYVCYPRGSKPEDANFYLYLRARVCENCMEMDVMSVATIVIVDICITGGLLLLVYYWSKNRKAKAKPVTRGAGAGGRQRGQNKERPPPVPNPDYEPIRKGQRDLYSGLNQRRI
Experimental: as §1, §2

T1 sequence (P15328 25-234 limits assumed): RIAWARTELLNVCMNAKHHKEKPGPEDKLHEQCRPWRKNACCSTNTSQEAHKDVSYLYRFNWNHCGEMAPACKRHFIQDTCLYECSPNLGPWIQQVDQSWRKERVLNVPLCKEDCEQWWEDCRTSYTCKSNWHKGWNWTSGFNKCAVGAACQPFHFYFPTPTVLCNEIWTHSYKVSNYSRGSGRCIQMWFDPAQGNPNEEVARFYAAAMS

Binder | binding result [1] | binding result [2]
cx1356 (bispecific antibody, Heterodimer of chain 1 and chain 2; anti-CD3 Fv disulfide-stabilized (VH G44C / VL G100C); the shortest entry is written; also called FRα-targeting constrained CD3 engaging construct; gs3 linker) chain 1: not shown chain 2: QLQLQESGGGLVQPGGSLRLSCAASGFTLDNYAIGWFRQAPGKEREGVSCISSSDGSTYYADSVKGRFTISRNNAKGTVYLLMNSLKPEDTAVYYCATELVPACTYSNGRGPLDGMDYWGKGTQVTVKPPGGGGDKTHTCPPCPAPELLGGPSVFLFPPKPKDTLMRSRTPEVTCVVVDVSHEDPEVKFNWYVDGVEVHNAKTKPREEQYNSTYRVVSVLTVLHQDWLNGKEYKCKVSNKALPAPIEKTISKAKGQPREPQVCTLPPSRDELTKNQVSLSCAVKGFYPSDIAVEWESNGQPENNYKTTPPVLDSDGSFFLVSKLTVDKSRWQQGNVFSCSVMHEALHNHYTQKSLSLSPGGSQAVVTQEPSLTVSPGGTVTLTCGSSTGAVTTSNYANWVQQKPGKSPRGLIGGTNKRAPGVPARFSGSLLGGKAALTISGAQPEDEADYYCALWYSNHWVFGCGTKLTVLGGGGEVQLLESGGGEVQPGGSLRLSCAASGSIFSIDATAWYRQAPGKQRELVAIITSSGSTNYPESVKGRFTISRDNAKNTVYLQMSSLRAEDTAVYYCNAITRYGGSTYDFWGQGTLVTVKP | binds | no binding (tested: 100 nM)
cx681 (bispecific antibody, Heterodimer of chain 1 and chain 2; anti-CD3 Fv disulfide-stabilized (VH G44C / VL G100C); the shortest entry is written; also called FRα-targeting constrained CD3 engaging construct; gs18 linker) chain 1: not shown chain 2: QLQLQESGGGLVQPGGSLRLSCAASGFTLDNYAIGWFRQAPGKEREGVSCISSSDGSTYYADSVKGRFTISRNNAKGTVYLLMNSLKPEDTAVYYCATELVPACTYSNGRGPLDGMDYWGKGTQVTVKPPGGGGDKTHTCPPCPAPELLGGPSVFLFPPKPKDTLMRSRTPEVTCVVVDVSHEDPEVKFNWYVDGVEVHNAKTKPREEQYNSTYRVVSVLTVLHQDWLNGKEYKCKVSNKALPAPIEKTISKAKGQPREPQVCTLPPSRDELTKNQVSLSCAVKGFYPSDIAVEWESNGQPENNYKTTPPVLDSDGSFFLVSKLTVDKSRWQQGNVFSCSVMHEALHNHYTQKSLSLSPGGSGGGGSGGGGSGGGGSQAVVTQEPSLTVSPGGTVTLTCGSSTGAVTTSNYANWVQQKPGKSPRGLIGGTNKRAPGVPARFSGSLLGGKAALTISGAQPEDEADYYCALWYSNHWVFGCGTKLTVLGGGGEVQLLESGGGEVQPGGSLRLSCAASGSIFSIDATAWYRQAPGKQRELVAIITSSGSTNYPESVKGRFTISRDNAKNTVYLQMSSLRAEDTAVYYCNAITRYGGSTYDFWGQGTLVTVKP | binds | no binding (tested: 100 nM)
